Measurements from paper PMC7049810 (2020).

T1: PBP1A, purified (Escherichia coli, UniProt P02918 1-850, NT647 RED-NHS dye on amines (PBP1A was the labelled protein in all MST assays))
T1 chain: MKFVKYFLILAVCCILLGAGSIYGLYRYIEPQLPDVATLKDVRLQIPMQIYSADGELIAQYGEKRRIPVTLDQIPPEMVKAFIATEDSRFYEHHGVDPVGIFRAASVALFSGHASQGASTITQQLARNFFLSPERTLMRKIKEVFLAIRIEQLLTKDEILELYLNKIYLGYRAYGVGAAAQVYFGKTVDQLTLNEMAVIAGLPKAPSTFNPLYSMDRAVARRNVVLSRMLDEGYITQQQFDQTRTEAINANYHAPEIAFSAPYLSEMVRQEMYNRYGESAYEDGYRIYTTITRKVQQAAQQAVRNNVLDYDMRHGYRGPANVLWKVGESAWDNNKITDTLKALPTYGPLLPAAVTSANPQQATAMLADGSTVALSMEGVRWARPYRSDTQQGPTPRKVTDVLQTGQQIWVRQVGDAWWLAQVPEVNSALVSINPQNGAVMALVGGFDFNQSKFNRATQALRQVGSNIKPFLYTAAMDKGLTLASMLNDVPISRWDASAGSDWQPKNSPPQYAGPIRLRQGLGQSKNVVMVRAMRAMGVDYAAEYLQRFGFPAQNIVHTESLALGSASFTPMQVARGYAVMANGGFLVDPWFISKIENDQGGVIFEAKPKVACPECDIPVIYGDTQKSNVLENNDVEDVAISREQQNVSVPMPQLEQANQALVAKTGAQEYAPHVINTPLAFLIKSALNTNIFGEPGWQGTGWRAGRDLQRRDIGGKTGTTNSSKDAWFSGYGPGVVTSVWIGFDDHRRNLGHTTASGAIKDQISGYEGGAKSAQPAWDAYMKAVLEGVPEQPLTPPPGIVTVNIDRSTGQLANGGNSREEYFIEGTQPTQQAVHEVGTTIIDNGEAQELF

T2: PBP4, native, purified (Escherichia coli, UniProt P24228 21-477, where used as the labelled protein in MST: NT647 RED-NHS dye on amines)
T2 chain: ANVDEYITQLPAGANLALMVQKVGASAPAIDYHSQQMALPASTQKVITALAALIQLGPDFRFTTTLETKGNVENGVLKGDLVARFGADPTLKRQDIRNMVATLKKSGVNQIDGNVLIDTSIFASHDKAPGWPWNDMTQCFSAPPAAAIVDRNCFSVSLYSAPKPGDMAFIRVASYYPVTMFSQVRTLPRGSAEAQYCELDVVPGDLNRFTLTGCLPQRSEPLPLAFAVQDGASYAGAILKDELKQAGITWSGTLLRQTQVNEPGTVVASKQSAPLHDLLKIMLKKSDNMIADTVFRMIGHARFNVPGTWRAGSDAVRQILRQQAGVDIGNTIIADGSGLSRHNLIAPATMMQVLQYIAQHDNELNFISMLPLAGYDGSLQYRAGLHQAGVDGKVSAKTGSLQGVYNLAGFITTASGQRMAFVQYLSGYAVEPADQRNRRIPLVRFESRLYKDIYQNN

B1: MepS (enzyme)
chain: CSANNTAKNMHPETRAVGSETSSLQASQDEFENLVRNVDVKSRIMDQYADWKGVRYRLGGSTKKGIDCSGFVQRTFREQFGLELPRSTYEQQEMGKSVSRSNLRTGDLVLFRAGSTGRHVGIYIGNNQFVHASTSSGVIISSMNEPYWKKRYNEARRVLSRS
modifications: where used as fl-MepS in MST: NT647 RED-NHS dye on amines
B2: PBP7, purified (enzyme)
chain: KTAAATTASQPEIASGSAMIVDLNTNKVIYSNHPDLVRPIASISKLMTAMVVLDARLPLDEKLKVDISQTPEMKGVYSRVRLNSEISRKDMLLLALMSSENRAAASLAHHYPGGYKAFIKAMNAKAKSLGMNNTRFVEPTGLSVHNVSTARDLTKLLIASKQYPLIGQLSTTREDMATFSNPTYTLPFRNTNHLVYRDNWNIQLTKTGFTNAAGHCLVMRTVINNKPVALVVMDAFGKYTHFADASRLRTWIETGKVMPVPAAALSYKKQKAAQMAAAGQTAQND
modifications: where used as the labelled protein in MST: NT647 RED-NHS dye on amines
B3: MepM (enzyme)
chain: YHRDATPIVKTIELEQNEIRSLLPEASEPIDQAAQEDEAIPQDELDDKIAGEAGVHEYVVSTGDTLSSILNQYGIDMGDITQLAAADKELRNLKIGQQLSWTLTADGELQRLTWEVSRRETRTYDRTAANGFKMTSEMQQGEWVNNLLKGTVGGSFVASARNAGLTSAEVSAVIKAMQWQMDFRKLKKGDEFAVLMSREMLDGKREQSQLLGVRLRSEGKDYYAIRAEDGKFYDRNGTGLAKGFLRFPTAKQFRISSNFNPRRTNPVTGRVAPHRGVDFAMPQGTPVLSVGDGEVVVAKRSGAAGYYVAIRHGRSYTTRYMHLRKILVKPGQKVKRGDRIALSGNTGRSTGPHLHYEVWINQQAVNPLTAKLPRTEGLTGSDRREFLAQAKEIVPQLRFD

Tests used:
Experiment in all cases: MST
PBP1A, purified = target: T1, PBP1A, purified
PBP4, native, purified = target: T2, PBP4, native, purified
MepS = target: B1

Binder: B1
Kd (PBP1A, purified): 91 nM

Binder: B2
Kd (PBP4, native, purified): 332 nM

Binder: B3
Kd (MepS): 1180 nM
